A protein production outcome set (Wang et al. 2014)

Test: label from the status in PepcDB records

With “MRRQPSLTLRSTLAFALVAMLTVSGAGLYLYQSIEQTVLQRSDHAVLARLDHFRKLLRYDLTMDNLKGSPQLFENMLDSEEDIFIIGEPGKPPVVSVNPQHAPLPDLPTVAQDQPLRVDDLRSGMSLQGVPLRAAAAQVMSNGVEVRLQAAHLMVKEMAMLASFRQSIYIAVALAFLITAVLGYVLLRRGLRPLRKMAAHAAAITPASLHKRLDSHDTPVELQQLSNAFNAMLDRIDDGYRRLMQFSADLAHEIRTPVGSLMGHCQVALRQDRSVDEYQALLASNLEELERISRLVESILFLARADEAQAALERQPLDLHDELQRVAGYFEGLADERNLKLSPSGRGTLLADPILLRRALSNLVANAIRYADEDSEILIRVVTVDQQWRIEVENQGPVLPHATLARLFDRFYRGDASRHERSDSNGLGLAIVTAIMHLHGGCVEVAQPAVGRICFSLVFPAA” the protein production was “failed”.
With “MRRRKYPWKQADILIHRYCRRLTTGQRLAVIAVAFALFMAGCLYMLLSSLLGFGETGGGLQIEHIRPLDIKPEKDTTIHFKDYYDYGHSENQDTVRLVC” the protein production was “failed”.
For “MRRRVAYARDYGDHIMGKFKFPTAYTILFVLIALVAAMTWIVPAGKYQMVTNAALGKEVPVAGTYAPVEAQPQGITAVLLAPIDGLYNHQTYTAGAIDVALFVLIIGGFLGVVNKTGAIDAGIERVTTRLNGREEWMIPILMALFAAGGTIYGMAEESLPFYTLLVPVMMAARFDPLVAAATVLLGSGIGTLGSTINPFATVIAANAAGIPFTQGILLRVILLLVGYVICVYWVMRYARKVRNSPESSIVADKMAENQAHFLGNRSETMLEFTPTRKAILILFAASFAFMIYGVAVLGWWMAEISAVFLAAAVIVGVIARMGEETFTSTFIDGARDLLGVALIIGIARGIVVVMDNGMITHTILHSAENLVSGLSTTVFINVTYWLEVLLSFLVPSSSGLAVLTMPIMAPLADFAHVQRDLVVTAYQSASGVVNLITPTSAVVMGGLAIARVPWVRYLRWVAPLLLILTMLNMIVLSIAAMI”, the protein production was “failed”.
In the case of “MRRSDLHGTSIEIERKNVGERRYITGFDGLRVMALLGVIFYHLMPFTVPGGYLGVPIFFAVSGYLITDIFIQEWDRTGKIKLGSFYIRRLRRLYPTLVMVLVTSTAYMTLFAQNLLSHIRNIIWTNLVFVYNWWLVNNGQSYFDRYNGESPFTHLWYLSVLAQYYFIWPLILIVLLKIFGERRVQASGILFSLSIISSMLMTILYHPDTVNRVYYGSDTRVAPFLIGAALAFIWPSTRLKKALNARTNLIANILGGILILVMGITFFTMPGTTATPYYGGIFIFSILAVLMIAIIAHPSFMWNRLLTNPVFKWLGSRSYGIYMYQLPVMIFYEQKVTNIAAHPVLNTLAPLVIILVISELSYRYIEIPLAKFDYRQTFALLKKIFDLKSNLQWRRYLAIPAVLVVLIALFGAVTSPEKVVQKTDGLQTKLAKNSKEADKKNKEALEKQKETSAAKTKQKKAKLTKQEKEIAKKYQLTDQEMKFAAVTPLTGVGDSVLEDTGADLQEIFPTAYMSSKVGRQVDEAPGIIAELKRQKTLSDNVLINLGANGPISDKDVKAVEDAVGSKRHIFWVNVHVPTKTWEGSVNKTLDKATKQYKNLTVIDWFTPSKNQPGWFYGDYVHPNPDGSKQYATIVAKKIIKTLNK”, the protein production is reported as “failed”.
For “MRRVVIRTEALSCPLDGDEDSNELRLRPLVPDAQEWKYPKSKLFPRHAAWSCHSGGGGGGGGGRVFTNKVNAVEEFNLGGLKDSESDSDSE”, the protein production was “failed”.
For “MRSETVSTHTKPVRPEPPAPAAEVPAGAFPPGQERDHDTRPSAPPRDQSPPPAPEADSRSAARPAPPTHPGTSSTVWVRRRLARLGAQRGTTMNPVLEPLVKTVRATHPKADIRLIERAYDVAAHYHRSQKRKSGDPYITHPLAVATILAELGMQEATIAAGLLHDTVEDTEYTLDQLRSDFGDEIAELVDGVTKLDKVKYGEATQAETVRKMVVAMARDIRVLVIKLCDRLHNMRTLRYLPQAKREKKARETLEIYAPLAHRLGMNTIKWELEDLAFATLYPKRFDEIARLVAERAPRRDVYLQEVIEIVSADLREAKIKATVRGRPKHYYSIYQKMIARNVGFDEIYDLVGIRVIVDSVRDCYAALGIIHARWNPVPGRFKDYIAMPKFNMYQSLHTTVIGPEGSPVELQIRTRAMHRRAEYGIAAHWKYKEERNNGGKAKGASTDMAWLRQLIDWQQETKDPGEFLESLRFDLSVQEVFVFTPRGDVIALPQGATPVDFAYAVHTEVGHRTVGARVNGRLVPLDSELHNGETVEIITAKTDDAGPSRDWLDFVKSARARNKIRQWFTKERREAAIEQGKEAIAKVMRKQELPVQRLFTSESLIALAHDLRYRDLDALYAAVGENQISAHKVVEKLIESVGSLDNNEEDIAEATTPIRVPRKRPTGNPGVVVQGDPDVWVRLSKCCTPVPGDAIIGFVTRGAGVSVHRDDCGNVKHLDPDRLVQVEWQPTGNSMFLVALQIEALDRTRLLSDITRVLSDQHVNILSATVQTTRDRVALSRFTFEMADPAHLGHVLKAVRSVDGVYDVYRVRN”, the protein production was “failed”.
With “MRSFILRARSAPTDSQRLLDEIGGKCHTEILAHCMMNSLFTAQSHREDVVIHLVLESTRDYSRTITVEANEISDVGGFHEAALIALLVKALDASVGMGKEQTRVVQPGLTVRTISFEALLGELAEHHSLYMMDKKGDSIRDIKIGPNPCFILTDHIPMPKKSGNSMKRLGVEKISLGPKMLFASQCVTLIHNEIDHQEA” the protein production was “not failed”.
In the case of “MRSFLKRTQCAQLRSTPSLIFSTGITHPAETALQRFKFLMYQVVASDLDGTLLSPDHTLSPYAKEPLKLLTARGINFVFATGRHHVDVGQIRDNLEIKSYMITSNGARVHDLDGNLIFAHNLDRDIASDLFGVVNDNPDIITNVYRDDEWFMNRHRPEEMRFFKEAVFKYALYEPGLLEPEGVSKVFFTCDSHEQLLPLEQAINARWGDRVNVSFSTLTCLEVMAGGVSKGHALEAVAKKLGYSLKDCIAFGDGMNDAEMLSMAGKGCIMGSAHQRLKDLHPELEVIGTNADDAVPHYLRKLYLS”, the protein production is reported as “failed”.
For “MRSISTGRMIDDSSDSVKGSVVWVPAKSIWITTMTVVAVVGGPLTFSWSAVIVFVLSTAITICLGHSVGMHRLLIHRSFSAPLWLEHLLVYLGTLVGMAGPFGMIYAHDIRDWAQRQRDCHDLYAHRRSFFVDALWQMHCAVALDEPPRFVVEERARHDRFYRLLEATWMAQQIPLALLLFSLGGLPWLVWGIAVRISVSLTGHWLVGHFAHRNGHQGWSVDDVAVQGYNLPRFGLVTFGESFHGNHHAFPESARLGIEPGQLDLGWHFIRLLAGLGLASAIKLPHTIVPRDGLRRVEVSGDTGEDHPVGQR”, the protein production was “failed”.
In the case of “MRSPYLIGVFLAAGKSRRMGQNKLALPLKGENIGSLSLKTALSSRLDHVLVVERTEHASLEWIGAPYHAPPFQKRWSLHVCQDAEKGQGHSVSSGVRKAESMGADGIVILLADQPQLSVDHLNALVALAPESFAVSSFLGAFTPPIYFSSTCFPYVKGLKGDEGARRLLKSGQLGAGAVLEAKDSGELDDIDTPRGILEHHHHHH”, the protein production is reported as “not failed”.
For “MRSRDFSSWIWGDALSLLQQADRLHRQLLRTGPAQAPCWEPPVDMIETESAVLIYVALPGVAAGDVAVRFDPDGISISGVRPLPALRNARIHGLEIPYGRFQRRIRLPLHALEPEAPTLADGCLTLTLKKLREAP”, the protein production was “failed”.
With “MRSRPTEGNLLVSIGIPFLNPGPYLDLAVRSVFAQTYLNWELILVDDGSTDGSYERAVAIQDPRVRVLRDGQNKGLPARLNEIVRLAKGELVARMDADDAMHPLRLEKQVGFLQANPELDGVTTGAYLIDAEDRPIALLPGRQPSAQEVLARGGFLHPSLLARKSWFEAHPYSLDYPRAEDRELFVRTFKTSRLHVLSEPLYFYRWFGVPRGKTLRIGYRSERKVMWKYGPNLVGWGPSLRLIALSFGKELLTWFLEWTHLEKGFQTRRAFQPLLEMDQREALRTLKVIRETCVPGWDLEHHHHHH” the protein production was “failed”.
For “MRSVTVSGFLTLIISGIMLIPSPAYSKIDTTLNTSSFIGAYLAGRVANHENKTDLAIKYFKKALTYKPENIETQVEMLEAMLFSGAFKEAVKQAQKLKKQGITNPFVSLTLSIESLIKKDYNKAKILLQLKTLPAANNPIPELIGAWATFGSGYQSQAITHLQKIQGPAWYKLFINYHLALMCDLAGHKQNAQKYFTQALNTQQATLIAPNTYEHIIIAYASFQLRSKMRIQALQTLKHGEQMLPGREIFKNIREKIEKGASLERLIKTPQQGTGEVLYNFGTTLNHKNSQRIARIFTQLSLILSPENDAIMFHLANISAKVNDLNQAIKLYRSLPQSSPYYRVGQLQLAFILANNNNHSEAIKLLTSLKKKNPNDRHILITLSALYMQDNKFTEATKTLDRAIAQITNFQQDDWKLFYQRGIAFERLQQWSKAENDLRKALDFFPNQPQVLNYLGYSLVERGEKLEESLHMLQKASTLQPQNSHILDSLGWAYYKLKQYNQAVQILGNAVRLQPEDPTLNDHLGDVYWRVGRKREAMFQWNHAIDGEAKNSKEIQEKLKFGLQ”, the protein production was “failed”.
For “MRSVVSFNEGWSFHEGFGQRLLETFDTAKSVSLPHTAVELPFSYFDETSYQRAFTYQKVLRWLPEFEGREVSLVFDAAMADSVVYLNGEEIIAHKDGYTPFEARLTGKLVKGENLVTVKIDGSENPDIPPFGGRIDYLTYAGIYRDVWLKVTDPVSIRNLKIETTDVLRPEKSATIRVDIANPEGRSFSATVTATLKQADGTVVATAATETIGSRTTLSFGGLTGIALWDITDPKLYDVTVELRTEHGSDRISTRFGFRTAEFTPEGFLLNGKPLKLRGLNRHQAFPYVGYAAGRSAQERDADIMKTVLKCNIVRTSHYPQSKWFLDRCDAIGLLVFEEIPGWQHIGDADWQQESIKNVRRMIERDWNHPSIIIWGVRINESQDDHDFYAETNRLARELDSTRQTGGVRYLTESELLEDVYTMNDFILGNEELPGANRPRTALRAQQENTGLSHKVPYLITEFNGHMHPTKIYDQEQRQAEHVRRHLEVLNAAYGDPDISGAIGWCMFDYNTHKDFGSGDRICYHGVMDMFREPKFAAYAYISQCDPSEEIVMKPVTFWARGERNIGGVLPLIILTNCDEVELQYGALSKRIGPDRENYPHLPHPPVVLDHRHFTADELGTWGLEWIDGTFTGYIGGEPVASLTLAADPLPTTLEVVADSSTLRARERDSTRVIIRALDQRGQRLPFMNDSISLKVHGPARIVGPTNVPLQGGTAGFWLEATGFTGEITVEAISTRFAPVTLGVTAA”, the protein production was “failed”.
With “MRTALLEVGLEELPASEFHSILKQLEEKSAELLKAYRVSSGSVEVFVGSRRFGVILKNLPERQEDFTEEKKGPPLNVAYDENGKPTRALEGFLRNNNASLENVVHREGYVYLSRVVEGKPVEEVLPDLFRDLVLGLNFRKPMRWGSGEHEYIRPVHWIVAMVDGRVLDLEIFGLRSSRISYGKRYHAGSIEIPDSERYYESLKKGFVISSHLERKKFVLEQIDEFEKRSSMKIERDEELIEEIVAITEYPRIVVGQFDRKYLELPEEIIVTAVKHHQRSFIAHKGTLTNTFVAFQDGPQPPENVVKGYERVINARLEDARYYFQKDLETPLEKMNEKLKEIVFQEKLGTLYDKVERIKKISQRLCEDLKLPGSFTQKVLEAASICKADIASKVVYEFPELQGVMGRIYALREGINEEIATAIEDHYSEEPQTVIGSILGIADRIDTIVGNFAIGNVPTSSKDPYGLKSKADTIFRIIRKNEWDISLEELLTFASSLVGYRLSEELETFFAGRFYQFLINELGISFDVARAVNHLWKKPLR” the protein production was “failed”.
With “MRTALLQNLFSLFPFDLHGDCDVPPARDGIRVSCIINFYGRLNVLAGILWSLAQQDFPRSAFEVILVEDRGGSDEGRALAEEFSSRLPIVYAPLDKQYGLMGYSRNFGLERSRGEFILFLDDDTIILQDDFLKTMVAYFDAQPGVSAIMPHGEASFAFVDDRYDFHDPFFMTSRCTAYRRTVLASLGGFMSSFIGQEDVEFVIRFHAAGNRCAAVPQLAYRHPPLYVTNLGKPMAVGSSFYGIRKRYPLVTWLLAVVNCSRHLPLVLAPSRKYREMGRFGLGFLWGVLTAPFRSGSLNYRLEHHHHHH” the protein production was “failed”.
